Source: paper PMC8971491, “Conformational plasticity of the HIV-1 gp41 immunodominant region is recognized by multiple non-neutralizing antibodies” (Communications Biology, 2022)

T1: 15-mer peptide corresponding to residues 594-608 of HIV-1 gp160 (HIV-1 Consensus Subtype C Env Peptide Set) (HIV-1 consensus subtype C (stand-in: …, UniProt P04578, strain))
T1 construct: 15-mer of the HIV-1 consensus subtype C Env peptide set, corresponding to residues 594-608 of HIV-1 gp160; also called single peptide that corresponds to residues 594-608 of HIV-1 gp160; NIH HIV-1 gp41 peptide; source: bought: NIH AIDS Reagent Program, HIV-1 Consensus Subtype C Env Peptide Set (cat. No. 9499)
T1 chain: GIWGCSGKLICTTAV

B1: Fab F240 (Fab, V domains shown)
VH: QVQLVQSGGGVVKPGASLRLACSASGFTFTDYYMSWIRQTPGKGLQWLAYITKDGSEKKYADSLQGRFAVSRDNANNLVFLQLNTVEDDDTGVYYCARDDGYYDRSGYYGVFDLWGQGIRVTVSS
VL: EFLLTQSPDSLAVTLGETATITCRSSRNILHSLNNKNYLAWYQQRPGQAPKLLVIWASMRVSGVADRFSGSGSGTDFALTISSLQPEDAAVYYCQHYYTTHRTFGQGTRVEIR
notes: immunoglobulin heavy chain variable region of F240; Ig gamma-1 chain constant region, fused after the variable region; as a Fab only part of the constant region is present; immunoglobulin light chain variable region of F240; Ig kappa chain constant region, fused after the variable region; Fab; residues numbered by Kabat convention; also called anti-gp41 Fab F240; source: HEK293T, transiently …
B2: Fab 3D6 (Fab, V domains shown)
VH: EVQLVESGGGLVQPGRSLRLSCAASGFTFNDYAMHWVRQAPGKGLEWVSGISWDSSSIGYADSVKGRFTISRDNAKNSLYLQMNSLRAEDMALYYCVKGRDYYDSGGYFTVAFDIWGQGTMVTVSS
VL: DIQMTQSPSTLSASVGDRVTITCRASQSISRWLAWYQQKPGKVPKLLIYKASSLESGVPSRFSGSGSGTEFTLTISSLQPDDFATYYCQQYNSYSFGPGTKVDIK
notes: immunoglobulin heavy chain variable region of 3D6; Ig gamma-1 chain constant region, fused after the variable region; as a Fab only part of the constant region is present; immunoglobulin light chain variable region of 3D6; Ig kappa chain constant region, fused after the variable region; Fab; residues numbered by Kabat convention; also called patient-derived near-germline antibody fragment; …

Target: T1, 15-mer peptide corresponding to …
Test: ELISA; 15-mer peptides adsorbed to microtiter plates at 10 ug/mL in 100 mM sodium bicarbonate pH 9.3 overnight at 4 C; Fab at 1 ug/mL in PBST-Milk, 1 hour at room temperature; goat anti-human HRP, absorbance at 450 nm
Conditions: both partners purified

Row | Binder | binding result
1 | B1 | binds
2 | B2 | binds
